This is an account of results in patent US20190194356A1 (CHANGZHOU BOJIA BIOTECHNOLOGY, published 2019).

One may read the Kd as the free concentration of one partner at which half of the binding sites on the other are occupied at equilibrium, for simple one-to-one binding. A higher Kd goes with lower affinity. A word on the koff: it is the first-order rate constant of dissociation. Read a high koff as fast dissociation. For orientation: kon means the rate constant with which the complex forms. High values mean fast association, low ones slow association. Broadly, the EC50 is the concentration giving half of the maximal effect. A low value points to an effect from little substance.

In test [1] the target is T1, human PCSK9 antigen (GeneBank AX127530.1) (human, UniProt Q8NBP7 31-692).
T1 construct: also called huPCSK9; human PCSK9 protein
The experiment in a line: BLI (Octet Red 96), antibody on anti-human IgG Fc (AHC) biosensor, PCSK9 in solution, 1:1 model. Here is the method: (§1) The ability of PCSK9 mAbs to bind to human, mouse or cynomolgus PCSK9 was characterized using the Octet Red 96 system (ForteBio). A kinetic-grade biosensor (Fortebio, #18-5063) of anti-human IgG Fc (AHC) was immersed in assay buffer after glycine pretreatment at pH 1.7. The PCSK9 monoclonal antibody to be detected was immobilized to the AHC biosensor at a concentration of 10 μg/ml for 120 seconds. The AHC biosensor loaded with the PCSK9 monoclonal antibody was then immersed in human PCSK9 antigen (GeneBank AX127530.1), mouse PCSK9 antigen (NCBI NM_153565.2) or cynomolgus PCSK9 antigen (NCBI NM_001112660.1) of different concentrations and buffer. The final dilution point of the analyte column only contained the detection buffer to test the non-specific binding between the buffer and the loaded biosensor. Antigen-antibody binding was detected from 80 to 120 s, and dissociation was detected from 120 to 180 s. A 60 second baseline was determined with the assay buffer. The affinity curves for anti-PCSK9 monoclonal antibodies were fitted using a 1:1 binding kinetic sensing monovalent binding model.
For orientation: Biolayer interferometry detects binding as a change in optical thickness at a sensor tip.

The target in test [2] is T2, mouse PCSK9 antigen (NCBI NM_153565.2) (mouse, UniProt Q80W65 35-694).
T2 construct: also called msPCSK9
The test is described as above. As to the method:
as §1

The target of test [3] is T1, human PCSK9 antigen (GeneBank …). The experiment in a line: cell-based or functional assay.
The target of test [4] is human PCSK9 mutant protein R306S (human, UniProt Q8NBP7 31-692). Description: BLI (Octet Red 96), antibody on AHC biosensor, PCSK9 mutant in solution. Here is the method: as §1
(§2) Human PCSK9 protein had different mutants. It was reported in the literature that there were many human PCSK9 mutants associated with hyperlipidemia. The inventors selected human PCSK9 mutant proteins of R218S, R306S, D374H, and D374Y among them, wherein the ability of PCSK9 mAbs of the invention in binding to different mutant PCSK9 proteins was characterized using the Octet Red 96 system (ForteBio) as described above. The kinetic analysis was shown in FIG. 7 and Table 9, except for R306S, the affinities of other human PCSK9 protein mutants to the PCSK9 monoclonal antibodies of the invention (normal IgG and long half-life IgG forms) were of the same order of magnitude as native human PCSK9 protein. Among them, the kon-binding ability of long half-life PCSK9 monoclonal antibody 9M284-QL to PCSK9 R218S protein was three times higher than that of 9M284 antibody.

The target in test [5] is human PCSK9 mutant protein D374H (human, UniProt Q8NBP7 31-692). The test is described as above. As to the method: as §1, §2
In test [6] the target is T3, human PCSK9 mutant protein R218S (human, UniProt Q8NBP7 31-692).
T3 construct: also called PCSK9 R218S protein
The description is as above. As to the method: as §1, §2

Test [7] deals with human PCSK9 mutant protein D374Y (human, UniProt Q8NBP7 31-692). The description is as above. As to the method: as §1, §2
For test [8], the target named is T1, human PCSK9 antigen (GeneBank …). The experiment in a line: BLI (Octet Red 96), antibody on AHC biosensor, human PCSK9 in solution, 1:1 model. Here is the method:
as §1
The specific experimental procedures were shown in Example 4 and Example 5. As shown in FIG. 5 and Table 7, the affinity of the long half-life antibody 9M284QL to human PCSK9 protein was substantially identical to 9M284 because the Fab region (containing VH and VL) of the engineered antibody 9M284QL was not changed compared to 9M284. As the affinity was not changed, the long half-life Fc-modified PCSK9 antibody 9M284QL, 9M284YTE and the conventional half-life antibody 9M284 had similar EC50 in the comparative test of cellular LDL uptake experiment, as shown in FIG. 6 and Table 8.

Test [9] addresses neonatal Fc receptor FcRn. The experiment in a line: ELISA at pH 6.0, antibody coated at 10 µg/mL, His-tagged FcRn titrated, anti-His-Tag-HRP. Here is the method: (§3) The target antibody was diluted to 10 μg/mL with coating solution (15 mM Na₂CO₃, 35 mM NaHCO₃, pH 9.6), and then added to a 96-well ELISA plate at a dose of 100 μL/well and incubated at 4° C. overnight for coating. After coating, the sample wells were washed with PBST, pH 7.4 4 times, added with 300 μL/well of 4% skim milk (PBS, pH 7.4), and incubated at 25° C. for 2 hours for blocking. After blocking, the sample wells were washed 4 times with PBST, pH 7.4, added with 100 μL/well of FcRn diluted with 0.4% skim milk dissolved in PBST (pH 6.0/7.4, respectively) (initial concentration 20 μg/mL, 2-fold gradient dilution, with 11 concentration gradients in total), and incubated at 25° C. for 1.5 hours. After incubation, the sample wells were washed 4 times with PBST, pH 6.0/7.4, added with anti-His-Tag-HRP diluted in 0.4% skim milk (1/500) (pH 6.0/7.4, respectively), and incubated at 25° C. for 1 hour. After incubation, the sample wells were washed 4 times with PBST, pH 6.0/7.4, and added with 100 μL/well of TMB for development (development conditions: 25° C., 10 to 15 minutes). After development, 100 μL/well of 1 M […] was added to stop the development reaction, and the absorbance at 450 nm was read out (background correction was performed by the subtraction of the absorbance at 650 nm).

Test [10] has as its target T1, human PCSK9 antigen (GeneBank …). Description: cell-based or functional assay. This is another data set of the same source.
Test [11] concerns the target T3, human PCSK9 mutant protein R218S. The experiment in a line: BLI (Octet Red 96); reference 9M284. Here is the method:
as §1
Human PCSK9 protein had different mutants. It was reported in the literature that there were many human PCSK9 mutants associated with hyperlipidemia. […]

The target in test [12] is neonatal Fc receptor FcRn. Description: ELISA at pH 6.0, antibody coated, His-tagged FcRn titrated; reference 9M284. Here is the method: as §3
A general note: An ELISA detects its analyte on a solid surface through an enzyme-linked reagent.

human PCSK9 mutant protein D374Y, sequence (Q8NBP7 31-692 D374Y limits assumed): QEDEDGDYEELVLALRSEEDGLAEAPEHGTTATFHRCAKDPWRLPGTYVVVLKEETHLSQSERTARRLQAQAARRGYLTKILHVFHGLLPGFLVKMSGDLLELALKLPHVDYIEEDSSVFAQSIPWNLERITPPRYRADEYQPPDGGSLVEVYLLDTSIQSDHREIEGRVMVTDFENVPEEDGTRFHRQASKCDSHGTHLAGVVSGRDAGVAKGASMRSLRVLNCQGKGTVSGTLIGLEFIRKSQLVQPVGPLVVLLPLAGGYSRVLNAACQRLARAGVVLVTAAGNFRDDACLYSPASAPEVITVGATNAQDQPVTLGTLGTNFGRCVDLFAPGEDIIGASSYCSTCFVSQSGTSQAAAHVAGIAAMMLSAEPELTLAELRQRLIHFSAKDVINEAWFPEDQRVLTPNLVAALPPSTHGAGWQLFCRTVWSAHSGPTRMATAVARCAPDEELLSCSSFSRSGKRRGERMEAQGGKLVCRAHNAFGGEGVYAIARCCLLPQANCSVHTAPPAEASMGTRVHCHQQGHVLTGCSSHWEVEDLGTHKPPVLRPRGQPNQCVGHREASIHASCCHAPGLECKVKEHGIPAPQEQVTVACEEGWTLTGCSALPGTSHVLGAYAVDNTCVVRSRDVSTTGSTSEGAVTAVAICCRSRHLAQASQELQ
T3 sequence (Q8NBP7 31-692 R218S limits assumed): as the sequence (Q8NBP7 31-692 D374Y limits assumed) above, with R188S, Y344D counted along it
human PCSK9 mutant protein R306S, sequence (Q8NBP7 31-692 R306S limits assumed): as the sequence (Q8NBP7 31-692 D374Y limits assumed) above, with R276S, Y344D counted along it
human PCSK9 mutant protein D374H, sequence (Q8NBP7 31-692 D374H limits assumed): as the sequence (Q8NBP7 31-692 D374Y limits assumed) above, with Y344H counted along it
T1 sequence (Q8NBP7 31-692 limits assumed): as the sequence (Q8NBP7 31-692 D374Y limits assumed) above, with Y344D counted along it
T2 sequence (Q80W65 35-694 limits assumed): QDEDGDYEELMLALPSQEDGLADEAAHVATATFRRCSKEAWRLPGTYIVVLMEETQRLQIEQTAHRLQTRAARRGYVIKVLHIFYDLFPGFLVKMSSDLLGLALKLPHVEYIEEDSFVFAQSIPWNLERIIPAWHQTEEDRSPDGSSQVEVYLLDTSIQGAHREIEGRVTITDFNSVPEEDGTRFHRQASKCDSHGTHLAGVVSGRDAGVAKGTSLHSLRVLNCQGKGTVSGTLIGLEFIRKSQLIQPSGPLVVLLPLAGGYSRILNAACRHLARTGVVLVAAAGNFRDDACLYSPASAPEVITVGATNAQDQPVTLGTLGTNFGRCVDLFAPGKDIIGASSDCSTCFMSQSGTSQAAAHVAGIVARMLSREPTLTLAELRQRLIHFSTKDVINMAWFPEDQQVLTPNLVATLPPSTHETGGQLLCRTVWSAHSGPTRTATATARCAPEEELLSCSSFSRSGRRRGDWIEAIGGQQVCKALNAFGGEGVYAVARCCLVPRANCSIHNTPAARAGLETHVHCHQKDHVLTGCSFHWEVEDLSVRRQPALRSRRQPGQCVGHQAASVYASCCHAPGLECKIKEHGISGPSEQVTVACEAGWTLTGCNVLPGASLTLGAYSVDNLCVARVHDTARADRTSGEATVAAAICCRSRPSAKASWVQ
neonatal Fc receptor FcRn, sequence (P55899 24-297, chain 1 of 2): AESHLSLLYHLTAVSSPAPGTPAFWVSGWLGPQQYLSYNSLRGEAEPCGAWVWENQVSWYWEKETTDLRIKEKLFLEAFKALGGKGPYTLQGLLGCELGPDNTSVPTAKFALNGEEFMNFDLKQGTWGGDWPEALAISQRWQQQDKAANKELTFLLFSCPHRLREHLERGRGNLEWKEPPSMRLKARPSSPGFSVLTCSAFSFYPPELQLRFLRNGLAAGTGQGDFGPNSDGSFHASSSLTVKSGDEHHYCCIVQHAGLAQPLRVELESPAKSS
neonatal Fc receptor FcRn, sequence (P61769 21-119, chain 2 of 2, further chain): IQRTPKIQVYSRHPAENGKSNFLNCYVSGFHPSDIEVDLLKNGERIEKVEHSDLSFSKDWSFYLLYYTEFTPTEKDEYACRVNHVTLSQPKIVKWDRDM

B1: monoclonal antibody 9M283 (antibody, human IgG2, lambda, V domains shown)
VH: QVQLVQSGAEVKKPGSSVKVSCKASAFTFDSFGMHWVRQAPGQGLEWMGLLWSDGSDEYYADSAKGRFTISRDNSKNTLYLQMNSLRSDDTAVYYCARALGAIYSYYAMDVWGQGTTVTVSS
VL: QSALTQPPSVSGSPGQSVTISCTGTSSNIGNQFVSWYQQLPGTAPKLMIYEYNKRPSGVPDRFSGSKSGNTASLTISGLQTGDEADYYCGSWDSSLSGYVFGTGTRVTVLG
notes: the claims call them variable regions; also called PCSK9 monoclonal antibody 9M283
In test [1], B1 gave a dissociation constant (Kd) below 0.001 nM, an off-rate constant (koff) below 1e-07 s⁻¹ and a kon of 399000 M⁻¹ s⁻¹. In test [2], the affinity, expressed as Kd, was 14 nM; the koff is 0.0051 s⁻¹; the kon was 350000 M⁻¹ s⁻¹. The “IC50, cellular LDL uptake assay (HepG2 cells, Dil-LDL, 20 µg/ml human PCSK9)” value in [3] turned out to be 6.12 nM.

B2: monoclonal antibody 9M284 (antibody, human IgG2, lambda)
heavy: QVQLVQSGAEVKKPGSSVKVSCKASAFTFDSFGMHWVRQAPGQGLEWMGLLWSDGSGEYYADSAKGRFTISRDNSKNTLYLQMNSLRSDDTAVYYCARAMGAIYYYYAMDVWGQGTTVTVSSASTKGPSVFPLAPCSRSTSESTAALGCLVKDYFPEPVTVSWNSGALTSGVHTFPAVLQSSGLYSLSSVVTVPSSNFGTQTYTCNVDHKPSNTKVDKTVERKCCVECPPCPAPPVAGPSVFLFPPKPKDTLMISRTPEVTCVVVDVSHEDPEVQFNWYVDGVEVHNAKTKPREEQFNSTFRVVSVLTVVHQDWLNGKEYKCKVSNKGLPAPIEKTISKTKGQPREPQVYTLPPSREEMTKNQVSLTCLVKGFYPSDIAVEWESNGQPENNYKTTPPMLDSDGSFFLYSKLTVDKSRWQQGNVFSCSVMHEALHNHYTQKSLSLSPG
light: QSALTQPPSVSGSPGQSVTISCTGTSSNIGNQFVSWYQQLPGTAPKLMIYEYNKRPSGVPDRFSGSKSGNTASLTISGLQTGDEADYYCGSWDSSLSGYVFGTGTRVTVLGQPKAAPSVTLFPPSSEELQANKATLVCLISDFYPGAVTVAWKADSSPVKAGVETTTPSKQSNNKYAASSYLSLTPEQWKSHRSYSCQVTHEGSTVEKTVAPTECS
notes: Fully human antibody from a phage library; the claims call 24 and 26 variable regions; also called PCSK9 monoclonal antibody 9M284
B2: the equilibrium dissociation constant (Kd) is 2.4 nM in test [4]; below 0.001 nM in test [5]; below 0.001 nM in test [6]; below 0.001 nM in test [7]; below 0.001 nM in test [8]; below 0.001 nM in [1]. This molecule came in with a Kd in [2] of 3 nM. In addition, the off-rate (koff) was 8.14e-05 s⁻¹ in [4]; below 1e-07 s⁻¹ in [5]; below 1e-07 s⁻¹ in test [6]; below 1e-07 s⁻¹ in test [7]; below 1e-07 s⁻¹ in test [8]; below 1e-07 s⁻¹ in test [1]. This molecule also came in with a koff in test [2] of 0.00094 s⁻¹. The on-rate (kon) was 33900 M⁻¹ s⁻¹ in test [4]; 24900 M⁻¹ s⁻¹ in test [5]; 11400 M⁻¹ s⁻¹ in [6]; 21800 M⁻¹ s⁻¹ in test [7]; 56000 M⁻¹ s⁻¹ in test [8]; 366000 M⁻¹ s⁻¹ in test [1]. In [2], this molecule came in with a kon of 320000 M⁻¹ s⁻¹. Also, the “IC50, cellular LDL uptake assay (HepG2 cells, Dil-LDL, 20 µg/ml human PCSK9)” value in test [3] was 5.75 nM. The midpoint of the response in [9], the EC50, lay at 71.9 µg/mL. In addition, the “EC50, cellular LDL uptake experiment” value in test [10] came out at 4.52 µg/mL.

B3: monoclonal antibody 9M284QL (antibody)
heavy: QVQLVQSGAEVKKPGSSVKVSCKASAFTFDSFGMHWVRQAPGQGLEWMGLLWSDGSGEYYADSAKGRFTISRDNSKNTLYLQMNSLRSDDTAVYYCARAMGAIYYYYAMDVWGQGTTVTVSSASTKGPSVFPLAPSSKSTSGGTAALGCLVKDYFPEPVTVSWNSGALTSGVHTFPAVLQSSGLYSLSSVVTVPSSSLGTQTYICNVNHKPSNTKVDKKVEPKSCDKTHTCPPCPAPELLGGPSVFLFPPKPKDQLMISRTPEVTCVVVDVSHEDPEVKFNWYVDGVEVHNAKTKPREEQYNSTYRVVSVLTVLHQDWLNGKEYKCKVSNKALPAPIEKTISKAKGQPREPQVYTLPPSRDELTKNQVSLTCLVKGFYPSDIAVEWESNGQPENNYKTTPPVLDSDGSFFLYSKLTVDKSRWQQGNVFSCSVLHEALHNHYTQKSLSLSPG
light: QSALTQPPSVSGSPGQSVTISCTGTSSNIGNQFVSWYQQLPGTAPKLMIYEYNKRPSGVPDRFSGSKSGNTASLTISGLQTGDEADYYCGSWDSSLSGYVFGTGTRVTVLGQPKAAPSVTLFPPSSEELQANKATLVCLISDFYPGAVTVAWKADSSPVKAGVETTTPSKQSNNKYAASSYLSLTPEQWKSHRSYSCQVTHEGSTVEKTVAPTECS
notes: also called long half-life PCSK9 monoclonal antibody 9M284-QL
B3: the dissociation constant (Kd) in test [4] was 1.46 nM; in test [5], below 0.001 nM; in test [6] it was below 0.001 nM; in test [7] it was below 0.001 nM; in test [8], below 0.001 nM. In addition, the off-rate constant (koff) in test [4] was 4.64e-05 s⁻¹; in test [5], below 1e-07 s⁻¹; in [6] it was below 1e-07 s⁻¹; in test [7], below 1e-07 s⁻¹; in [8], below 1e-07 s⁻¹. Further, the kon in test [4] is 31800 M⁻¹ s⁻¹; in test [5], 26900 M⁻¹ s⁻¹; in test [6], 36500 M⁻¹ s⁻¹; in test [7], 29700 M⁻¹ s⁻¹; in test [8], 58500 M⁻¹ s⁻¹. For the same molecule, the “fold higher kon than 9M284” value in test [11] stood at 3 fold. Besides, the “fold smaller EC50 than 9M284” value in test [12] was found to be 2.8 fold. In addition, in test [9], the concentration for a half-maximal effect (EC50) was determined as 25 µg/mL. The “EC50, cellular LDL uptake experiment” value in [10] came out at 5.28 µg/mL.

B4: monoclonal antibody 9M284YTE (antibody)
heavy: QVQLVQSGAEVKKPGSSVKVSCKASAFTFDSFGMHWVRQAPGQGLEWMGLLWSDGSGEYYADSAKGRFTISRDNSKNTLYLQMNSLRSDDTAVYYCARAMGAIYYYYAMDVWGQGTTVTVSSASTKGPSVFPLAPSSKSTSGGTAALGCLVKDYFPEPVTVSWNSGALTSGVHTFPAVLQSSGLYSLSSVVTVPSSSLGTQTYICNVNHKPSNTKVDKKVEPKSCDKTHTCPPCPAPELLGGPSVFLFPPKPKDTLYITREPEVTCVVVDVSHEDPEVKFNWYVDGVEVHNAKTKPREEQYNSTYRVVSVLTVLHQDWLNGKEYKCKVSNKALPAPIEKTISKAKGQPREPQVYTLPPSRDELTKNQVSLTCLVKGFYPSDIAVEWESNGQPENNYKTTPPVLDSDGSFFLYSKLTVDKSRWQQGNVFSCSVMHEALHNHYTQKSLSLSPG
light: QSALTQPPSVSGSPGQSVTISCTGTSSNIGNQFVSWYQQLPGTAPKLMIYEYNKRPSGVPDRFSGSKSGNTASLTISGLQTGDEADYYCGSWDSSLSGYVFGTGTRVTVLGQPKAAPSVTLFPPSSEELQANKATLVCLISDFYPGAVTVAWKADSSPVKAGVETTTPSKQSNNKYAASSYLSLTPEQWKSHRSYSCQVTHEGSTVEKTVAPTECS
For the molecule B4, in [12], the “fold smaller EC50 than 9M284” value came to 2.8 fold. Further, in test [9], the midpoint of the response, the EC50, lay at 24.3 µg/mL. Besides, in [10], the “EC50, cellular LDL uptake experiment” value turned out to be 4.36 µg/mL.
